Test results taken from publication PMC11301353 (iScience, 2024).

Tests used:
Assay in all cases: site-directed spin labelling EPR
[1] = target: SET/TAF-Iβ D226C mutant, MTSL spin-labelled (UniProt Q01105-2 1-277, D226C, MTSL nitroxide spin label on Cys226)
[2] = target: SET/TAF-Iβ D260C mutant, MTSL spin-labelled (UniProt Q01105-2 1-277, D260C, MTSL nitroxide spin label on Cys260)
[3] = target: SET/TAF-Iβ E243C mutant, MTSL spin-labelled (UniProt Q01105-2 1-277, E243C, MTSL nitroxide spin label on Cys243)

- binding result [1]: binds
- binding result [2]: binds
- binding result [3]: binds
B1: wild-type cytochrome c (natural protein)
chain: not shown
modifications: heme group (assembled by co-expressed yeast heme lyase); reduced state in ITC and EPR
